The text below walks through data of paper PMC4637192.

This assay concerns the target HLA-DRB5*01:01 molecule (recombinant HLA-DRA1 and DRB5*01:01 chains) (human). Briefly: AlphaScreen or HTRF. A general note: In Alpha technology, singlet oxygen from a donor bead excites a nearby acceptor bead.

For orientation: IC50 means the midpoint of a concentration-inhibition curve. In the case of “IE1 211-225 variant P3 K→Y (…) (peptide)”, the IC50 came out at 8 nM.
